Like-named read-outs stand apart in the source and are kept apart here.
Tests used:
Test in all cases: split reporter
CLuc-EXO70H1 [1] = molecular target: T1, CLuc-EXO70H1 (A. thaliana, UniProt Q8VY27 1-636)
T1 sequence: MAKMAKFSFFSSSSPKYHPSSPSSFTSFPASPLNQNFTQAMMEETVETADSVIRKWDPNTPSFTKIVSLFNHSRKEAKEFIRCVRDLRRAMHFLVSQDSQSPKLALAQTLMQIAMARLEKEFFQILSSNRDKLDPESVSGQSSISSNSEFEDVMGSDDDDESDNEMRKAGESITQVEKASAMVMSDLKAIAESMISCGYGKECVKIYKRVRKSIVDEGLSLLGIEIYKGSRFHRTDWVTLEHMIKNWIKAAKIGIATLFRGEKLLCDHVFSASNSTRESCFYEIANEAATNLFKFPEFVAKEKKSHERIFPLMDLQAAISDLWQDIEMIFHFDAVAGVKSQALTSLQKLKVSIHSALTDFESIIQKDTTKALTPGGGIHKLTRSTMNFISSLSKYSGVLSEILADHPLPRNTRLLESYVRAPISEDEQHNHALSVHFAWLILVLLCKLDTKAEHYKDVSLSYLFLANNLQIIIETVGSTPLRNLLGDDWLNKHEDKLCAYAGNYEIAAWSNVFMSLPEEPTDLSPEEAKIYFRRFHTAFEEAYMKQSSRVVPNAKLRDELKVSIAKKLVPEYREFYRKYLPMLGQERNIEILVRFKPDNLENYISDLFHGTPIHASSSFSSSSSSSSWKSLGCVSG

CLuc-EXO70H4 [2] = molecular target: T2, CLuc-EXO70H4 (A. thaliana, UniProt Q9SF51 1-628)
T2 sequence: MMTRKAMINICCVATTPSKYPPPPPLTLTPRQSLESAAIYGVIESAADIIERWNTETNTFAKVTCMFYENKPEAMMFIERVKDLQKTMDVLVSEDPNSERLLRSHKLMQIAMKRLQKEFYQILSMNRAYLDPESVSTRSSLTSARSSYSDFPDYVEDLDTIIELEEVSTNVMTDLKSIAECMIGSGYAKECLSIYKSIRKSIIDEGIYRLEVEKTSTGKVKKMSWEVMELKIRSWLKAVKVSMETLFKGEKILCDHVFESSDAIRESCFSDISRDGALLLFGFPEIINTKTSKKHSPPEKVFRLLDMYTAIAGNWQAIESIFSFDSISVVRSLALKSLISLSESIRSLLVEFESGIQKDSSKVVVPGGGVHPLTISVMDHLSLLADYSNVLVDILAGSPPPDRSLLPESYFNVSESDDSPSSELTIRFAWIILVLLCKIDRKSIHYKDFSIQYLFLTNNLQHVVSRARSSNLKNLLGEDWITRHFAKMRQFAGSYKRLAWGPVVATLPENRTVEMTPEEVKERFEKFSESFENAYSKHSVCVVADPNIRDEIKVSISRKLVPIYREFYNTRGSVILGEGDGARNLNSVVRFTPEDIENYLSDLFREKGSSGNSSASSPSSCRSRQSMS

CLuc-EXO70B2 = molecular target: T3, CLuc-EXO70B2 (A. thaliana, UniProt Q9LMJ4 1-599)
T3 sequence: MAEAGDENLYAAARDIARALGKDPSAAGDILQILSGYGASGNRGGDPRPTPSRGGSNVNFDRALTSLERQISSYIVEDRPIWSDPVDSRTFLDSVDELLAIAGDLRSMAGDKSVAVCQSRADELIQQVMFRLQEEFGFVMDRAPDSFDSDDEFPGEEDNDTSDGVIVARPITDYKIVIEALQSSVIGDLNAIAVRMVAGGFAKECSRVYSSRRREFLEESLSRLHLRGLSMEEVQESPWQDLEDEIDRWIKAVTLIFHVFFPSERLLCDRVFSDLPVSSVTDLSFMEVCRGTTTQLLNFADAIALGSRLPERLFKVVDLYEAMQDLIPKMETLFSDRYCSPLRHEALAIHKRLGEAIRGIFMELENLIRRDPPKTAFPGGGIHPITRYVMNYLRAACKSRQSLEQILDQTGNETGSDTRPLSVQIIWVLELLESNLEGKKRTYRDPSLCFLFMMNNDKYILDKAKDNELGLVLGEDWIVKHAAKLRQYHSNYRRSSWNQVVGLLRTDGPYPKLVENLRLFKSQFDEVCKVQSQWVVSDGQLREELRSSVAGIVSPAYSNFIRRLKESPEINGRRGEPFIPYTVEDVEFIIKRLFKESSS

CLuc-EXO70H4 [3] = molecular target: T2, CLuc-EXO70H4; remark: listed apart in the source
CLuc-EXO70H2 = molecular target: T4, CLuc-EXO70H2 (A. thaliana, UniProt O80625 1-637)
T4 sequence: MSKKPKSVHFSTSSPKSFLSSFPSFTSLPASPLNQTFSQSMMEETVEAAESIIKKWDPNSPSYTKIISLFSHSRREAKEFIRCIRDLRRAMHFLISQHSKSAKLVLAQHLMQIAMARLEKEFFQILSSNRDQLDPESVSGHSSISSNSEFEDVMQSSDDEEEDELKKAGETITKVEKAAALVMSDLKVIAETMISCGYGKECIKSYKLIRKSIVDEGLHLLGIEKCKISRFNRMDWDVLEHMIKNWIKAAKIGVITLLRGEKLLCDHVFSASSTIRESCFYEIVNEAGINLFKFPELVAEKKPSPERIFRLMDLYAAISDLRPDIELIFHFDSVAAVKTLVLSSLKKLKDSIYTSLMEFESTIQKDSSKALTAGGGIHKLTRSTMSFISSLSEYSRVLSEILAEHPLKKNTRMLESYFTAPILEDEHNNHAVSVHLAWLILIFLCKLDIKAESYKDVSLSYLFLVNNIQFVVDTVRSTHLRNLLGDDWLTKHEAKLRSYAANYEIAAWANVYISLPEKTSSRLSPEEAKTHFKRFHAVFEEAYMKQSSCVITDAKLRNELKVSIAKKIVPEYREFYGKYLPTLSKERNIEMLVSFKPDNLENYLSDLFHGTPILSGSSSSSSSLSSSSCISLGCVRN

CLuc-EXO70H1 [4] = molecular target: T1, CLuc-EXO70H1; remark: listed apart in the source
[5] = molecular target: CLuc-EXO70H7 (A. thaliana); conditions: scale: relative to the calmodulin positive control

B1: MLO12-NLuc (natural protein)
chain: MAIKERSLEETPTWAVAVVCFVLLFISIMIEYFLHFIGHWFKKKHKKALSEALEKVKAELMLLGFISLLLVVLQTPVSEICIPRNIAATWHPCSNHQEIAKYGKDYIDDGRKILEDFDSNDFYSPRRNLATKGYDKCAEKGKVALVSAYGIHQLHIFIFVLAVFHVLYCIITYALGKTKMKKWKSWERETKTIEYQYANDPERFRFARDTSFGRRHLNIWSKSTFTLWITCFFRQFFGSVTKVDYLTLRHGFIMAHLPAGSAARFDFQKYIERSLEQDFTVVVGISPLIWCIAVLFILTNTHGWDSYLWLPFLPLIVILIVGAKLQMIISKLGLRIQEKGDVVKGAPVVEPGDDLFWFGRPRFILFLIHLVLFTNAFQLAFFVWSTYEFTLKNCFHHKTEDIAIRITMGVLIQVLCSYITLPLYALVTQMGTSMRPTIFNDRVANALKKWHHTAKKQTKHGHSGSNTPHSSRPTTPTHGMSPVHLLHNYNNRSLDQQTSFTASPSPPRFSDYSGQGHGHQHFFDPESQNHSYQREITDSEFSNSHHPQVDMASPVREEKEIVEHVKVDLSEFTFKK
relative luminescence (CLuc-EXO70H1 [1]): ~0.37 relative to the calmodulin positive control

B2: MLO2-NLuc (natural protein)
chain: MADQVKERTLEETSTWAVAVVCFVLLFISIVLEHSIHKIGTWFKKKHKQALFEALEKVKAELMLLGFISLLLTIGQTPISNICISQKVASTMHPCSAAEEAKKYGKKDAGKKDDGDGDKPGRRLLLELAESYIHRRSLATKGYDKCAEKGKVAFVSAYGIHQLHIFIFVLAVVHVVYCIVTYAFGKIKMRTWKSWEEETKTIEYQYSNDPERFRFARDTSFGRRHLNFWSKTRVTLWIVCFFRQFFGSVTKVDYLALRHGFIMAHFAPGNESRFDFRKYIQRSLEKDFKTVVEISPVIWFVAVLFLLTNSYGLRSYLWLPFIPLVVILIVGTKLEVIITKLGLRIQEKGDVVRGAPVVQPGDDLFWFGKPRFILFLIHLVLFTNAFQLAFFAWSTYEFNLNNCFHESTADVVIRLVVGAVVQILCSYVTLPLYALVTQMGSKMKPTVFNDRVATALKKWHHTAKNETKHGRHSGSNTPFSSRPTTPTHGSSPIHLLHNFNNRSVENYPSSPSPRYSGHGHHEHQFWDPESQHQEAETSTHHSLAHESSEPVLASVELPPIRTSKSLRDFSFKK
relative luminescence (CLuc-EXO70H4 [2]): ~0.4 relative to the calmodulin positive control | relative luminescence (CLuc-EXO70B2): ~0.56 relative to the calmodulin positive control | relative luminescence (CLuc-EXO70H1 [1]): ~0.39 relative to the calmodulin positive control

B3: MLO6-NLuc (natural protein)
chain: MADQVKEKTLEETSTWAVAVVCFVLLLISIVIEKLIHKIGSWFKKKNKKALYEALEKVKAELMLMGFISLLLTIGQGYISNICIPKNIAASMHPCSASEEARKYGKKDVPKEDEEENLRRKLLQLVDSLIPRRSLATKGYDKCAEKGKVAFVSAYGMHQLHIFIFVLAVCHVIYCIVTYALGKTKMRRWKKWEEETKTIEYQYSHDPERFRFARDTSFGRRHLSFWSKSTITLWIVCFFRQFFRSVTKVDYLTLRHGFIMAHLAPGSDARFDFRKYIQRSLEEDFKTIVEINPVIWFIAVLFLLTNTNGLNSYLWLPFIPFIVILIVGTKLQVIITKLGLRIQEKGDVVKGTPLVQPGDHFFWFGRPRFILFLIHLVLFTNAFQLAFFVWSTYEFGLKNCFHESRVDVIIRISIGLLVQILCSYVTLPLYALVTQMGSKMKPTVFNERVATALKSWHHTAKKNIKHGRTSESTTPFSSRPTTPTHGSSPIHLLRNAPHKRSRSVDESFANSFSPRNSDFDSWDPESQHETAETSNSNHRSRFGEEESEKKFVSSSVELPPGPGQIRTQHEISTISLRDFSFKR
relative luminescence (CLuc-EXO70H4 [3]): > 0.24 relative to the calmodulin positive control | relative luminescence (CLuc-EXO70H2): > 0.24 relative to the calmodulin positive control | relative luminescence (CLuc-EXO70H1 [4]): > 0.24 relative to the calmodulin positive control | relative luminescence [5]: > 0.24 | relative luminescence (CLuc-EXO70H4 [2]): ~0.67 relative to the calmodulin positive control
